# Reference: patent US20060035332
# Tests used:
# [1] = molecular target: human OT7T022 receptor (human); assay: competition, 125I-Tyr-hRFRP-3(8), pH 7.5, room temperature; details: modification not given
# [2] = molecular target: human OT7T022 receptor (human); assay: competition; details: modification not given
# Chain of human OT7T022 receptor (human) (chain, as listed by the source): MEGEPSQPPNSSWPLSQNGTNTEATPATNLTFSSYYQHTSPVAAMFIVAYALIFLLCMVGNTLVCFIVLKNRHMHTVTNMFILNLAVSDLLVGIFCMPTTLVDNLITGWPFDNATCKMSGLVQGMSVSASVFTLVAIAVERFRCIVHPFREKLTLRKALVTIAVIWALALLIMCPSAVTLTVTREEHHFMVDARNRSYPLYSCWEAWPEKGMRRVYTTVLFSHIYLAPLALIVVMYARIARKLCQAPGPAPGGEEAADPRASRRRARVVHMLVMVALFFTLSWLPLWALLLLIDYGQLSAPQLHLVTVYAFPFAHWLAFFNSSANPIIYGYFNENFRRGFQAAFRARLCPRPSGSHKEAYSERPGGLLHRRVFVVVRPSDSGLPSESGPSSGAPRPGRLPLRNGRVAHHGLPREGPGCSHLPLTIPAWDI
Binder,IC50 [1] [nM],IC50 [2] [nM]
SAGATANLPLRSGRNMEVSLVRRVPNLPQRF [hRFRP-3(31)],1.3,
NLPQRF [hRFRP-3(6)],,2.6
LPQRF [hRFRP-3(5)],2.1,
ATANLPLRSGRNMEVSLVRRVPNLPQRF [hRFRP-3(28)],1.1,
PNLPQRF [hRFRP-3(7)],,0.62
